In US11608371 (PETMEDIX, dated 2023):
Read-outs that look alike come from different tables or passages of the source.

Assays:
[1] = molecular target: Canine FcRn-B2M recombinant protein (Immunitrack) (canine); test: SPR (Biacore 8K), canine FcRn-B2M amine-coupled on CM5 chip, running buffer pH 6, steady state affinity
[2] = molecular target: T1, Human nerve growth factor (NGF) (human, UniProt P01138 122-241); test: cell-based or functional assay
[3] = molecular target: T2, Murine FcRn-B2M recombinant protein (Immunitrack) (murine, UniProt Q61559 22-297; P01887 21-119, limits assumed); test: SPR (Biacore 8K), murine FcRn-B2M amine-coupled on CM5 chip, running buffer pH 6, steady state affinity
T2 construct: Bought reagent, amine-coupled to a CM5 chip; also called murine neonatal receptor
T2 sequence (looked up): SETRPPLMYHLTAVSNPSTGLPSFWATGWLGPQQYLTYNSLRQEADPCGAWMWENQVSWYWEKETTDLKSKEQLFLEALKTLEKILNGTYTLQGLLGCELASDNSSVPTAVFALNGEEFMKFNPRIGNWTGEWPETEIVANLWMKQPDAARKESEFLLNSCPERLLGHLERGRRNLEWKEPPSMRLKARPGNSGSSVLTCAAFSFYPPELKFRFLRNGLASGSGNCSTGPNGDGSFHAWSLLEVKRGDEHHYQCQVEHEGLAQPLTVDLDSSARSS
T2 sequence (b2m, looked up): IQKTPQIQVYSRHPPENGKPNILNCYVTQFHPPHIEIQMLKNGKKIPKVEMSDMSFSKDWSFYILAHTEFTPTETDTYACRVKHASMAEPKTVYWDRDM
Protocol: (§1) Briefly, CM5 Sensor Chip (Cytiva) was docked into Biacore 8K, equilibrated for 30' at RT and then Running Buffer (10 mM HEPES pH6 150 mM NaCl 3 mM EDTA and 0.005% Tween20) was applied to the SPR chip surface.
(§2) Canine and murine FcRn-B2M recombinant protein (Immunitrack, ITF12-ITF08) was diluted into 10 mM acetate buffer pH4.5 at 4 nM (1:2000 dilution from stock) and immobilised using standard amine coupling reaction.

[4] = molecular target: T3, Rat nerve growth factor (NGF) (rat, UniProt P25427 122-241); test: SPR (Biacore 8K), PetML119 captured on Protein A chip, rat NGF as analyte, kinetics affinity
T3 construct: Bought reagent; also called rat NGF
Protocol: (§3) Briefly, Protein A Sensor Chip (Cytiva) was docked into Biacore 8K, equilibrated for 30' at RT and then Running Buffer (10 mM HEPES pH7.4 150 mM NaCl 3 mM EDTA and 0.005% Tween20) was applied to the SPR chip surface.
(§4) These have been immobilised using 90 sec association at 10 uL/min as capturing step, followed by injection of running buffer to remove any unbound product.
(§5) Kinetics were assessed using multi-cycle kinetics with capture step method (30 sec association-120 sec dissociation) followed by regeneration step (0.1M Glycine pH2.2 contact time 60 sec FR 30 uL/min).

[5] = molecular target: T1, Human nerve growth factor (NGF); test: SPR (Biacore 8K), PetML119 captured on Protein A chip, human NGF as analyte, kinetics affinity
Protocol: as §3, §4, §5

[6] = molecular target: T2, Murine FcRn-B2M recombinant protein …; test: SPR (Biacore 8K), murine FcRn-B2M amine-coupled on CM5, pH 6, multi-cycle kinetics; reference not named, taken as PetML119 (wild type Fc)
Protocol: as §1, §2

[7] = molecular target: T2, Murine FcRn-B2M recombinant protein …; test: SPR (Biacore 8K), murine FcRn-B2M amine-coupled on CM5 chip, running buffer pH 6, steady state affinity; remark: listed apart in the source
Protocol: as §1, §2

[8] = molecular target: T1, Human nerve growth factor (NGF); test: SPR (Biacore 8K), human NGF as analyte on Bedinvetmab, kinetics affinity, 1:1 binding fit

T1 sequence (P01138 122-241 limits assumed): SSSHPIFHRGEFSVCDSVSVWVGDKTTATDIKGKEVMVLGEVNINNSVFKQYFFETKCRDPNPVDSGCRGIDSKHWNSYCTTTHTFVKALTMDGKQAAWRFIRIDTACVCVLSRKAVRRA
T3 sequence (P25427 122-241 limits assumed): as the sequence (P01138 122-241 limits assumed) above, with S3T, I6V, R9M, M37T, D60A, D65E, M92T, G94D, V117A, A120G counted along it

**Q.** For “PetML122 (canine p75NTR ECD - canine Fc YTE protein fusion) (Fc fusion)”, which Kd [1] is on record?
**A.** Its Kd is 0.4 µM.

**Q.** How did the Kd [1] turn out when “PetML119 (canine p75NTR ECD - canine IgGB wt Fc protein fusion) (Fc fusion)” was run?
**A.** Its Kd is 6 µM.

B1: PetML119 (canine p75NTR ECD - canine IgGB wt Fc protein fusion) (Fc fusion)
chain: KEACPTGLYTHSGECCKACNLGEGVAQPCGANQTVCEPCLDSVTFSDVVSATEPCKPCTECVGLQSMSAPCVEADDAVCRCAYGYYQDETTGRCEACRVCEAGSGLVFSCQDRQNTVCEECPDGTYSDEANHVDPCLPCTVCEDTERQLRECTRWADAECEEIPGGGGRENGRVPRPPDCPKCPAPEMLGGPSVFIFPPKPKDTLLIARTPEVTCVVVDLDPEDPEVQISWFVDGKQMQTAKTQPREEQFNGTYRVVSVLPIGHQDWLKGKQFTCKVNNKALPSPIERTISKARGQAHQPSVYVLPPSREELSKNTVSLTCLIKDFFPPDIDVEWQSNGQQEPESKYRTTPPQLDEDGSYFLYSKLSVDKSRWQRGDTFICAVMHEALHNHYTQKSLSHSPGK
notes: also called PetMI119; Fc-Bwt
**Q.** For B1, which “IC50 (nM), inhibition of TF-1 cell proliferation” value [2] is on record?
**A.** Its value is 15.2 nM.

**Q.** What about the Kd [3] of the same molecule?
**A.** Its Kd is 2000 nM.

**Q.** What about the Kd [4] of the same molecule?
**A.** Its Kd is 0.12 nM.

**Q.** And the Kd [5]?
**A.** Its Kd is 0.12 nM.

B2: PetML122 (canine p75NTR ECD - canine Fc YTE protein fusion) (Fc fusion)
chain: KEACPTGLYTHSGECCKACNLGEGVAQPCGANQTVCEPCLDSVTFSDVVSATEPCKPCTECVGLQSMSAPCVEADDAVCRCAYGYYQDETTGRCEACRVCEAGSGLVFSCQDRQNTVCEECPDGTYSDEANHVDPCLPCTVCEDTERQLRECTRWADAECEEIPGGGGRENGRVPRPPDCPKCPAPEMLGGPSVFIFPPKPKDTLYITREPEVTCVVVDLDPEDPEVQISWFVDGKQMQTAKTQPREEQFNGTYRVVSVLPIGHQDWLKGKQFTCKVNNKALPSPIERTISKARGQAHQPSVYVLPPSREELSKNTVSLTCLIKDFFPPDIDVEWQSNGQQEPESKYRTTPPQLDEDGSYFLYSKLSVDKSRWQRGDTFICAVMHEALHNHYTQKSLSHSPGK
notes: Same construct as PetML119, but with the YTE triple mutation in the Fc; also called PetMI122; Fc-B-YTE
**Q.** B2 was tested. Which “IC50 (nM), inhibition of TF-1 cell proliferation” value [2] did it give?
**A.** Its value is 5.91 nM.

**Q.** What about the “fold increase in binding affinity” value [6] of the same molecule?
**A.** Its value is 10 fold.

**Q.** What about the Kd [7] of the same molecule?
**A.** The Kd was 90 nM.

B3: Bedinvetmab (antibody, V domains shown)
VH: EVQLVESGGDLVKPGGSLRLSCVASGFTFSSHGMHWVRQSPGKGLQWVAVINSGGSSTYYTDAVKGRFTISRDNAKNTVYLQMNSLRAEDTAMYYCAKESVGGWEQLVGPHFDYWGQGTLVIVSS
VL: QSVLTQPTSVSGSLGQRVTISCSGSTNNIGILGASWYQLFPGKAPKLLVYGNGNRPSGVPDRFSGADSGDSVTLTITGLQAEDEADYYCQSFDTTLGAHVFGGGTHLTVL
**Q.** What does the source list for B3?
**A.** IC50 (nM), inhibition of TF-1 cell proliferation [2]: 1.65 nM; Kd [8]: 0.073 nM
